{
  "source": "paper PMC3518043",
  "about": "(Biochemistry, 2012)",
  "binders": {"B1": {"name": "Histone H3 peptide (1-11) with C-terminal 6x-histidine (peptide, UniProt P68431 2-12, looked up)", "peptide": "ARTKQTARKST"}, "B2": {"name": "Histone H3 peptide (1-11) with C-terminal biotin (peptide, UniProt P68431 2-12, looked up)", "peptide": "ARTKQTARKST-biotin"}},
  "key": {"[1]": {"molecular_target": "CHD5 tandem PHD1-2 as used in the ALPHA (UniProt Q8TDI0 338-468)", "sequence (Q8TDI0 338-468)": "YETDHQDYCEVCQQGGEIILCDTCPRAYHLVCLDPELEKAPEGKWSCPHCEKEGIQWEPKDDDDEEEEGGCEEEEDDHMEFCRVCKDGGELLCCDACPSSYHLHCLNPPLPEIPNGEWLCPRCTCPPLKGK", "assay": "AlphaScreen or HTRF"}, "[2]": {"molecular_target": "CHD5 PHD1 finger (338-393), GST tag cleaved (UniProt Q8TDI0 338-393)", "sequence (Q8TDI0 338-393)": "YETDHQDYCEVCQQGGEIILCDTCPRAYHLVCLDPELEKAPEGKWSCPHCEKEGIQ", "assay": "SPR"}, "[3]": {"molecular_target": "CHD5 tandem PHD1-2 (338-468), GST tag cleaved (UniProt Q8TDI0 338-468)", "sequence (Q8TDI0 338-468)": "as the sequence (Q8TDI0 338-468) above", "assay": "SPR"}, "[4]": {"molecular_target": "CHD5 PHD2 finger (413-468), GST tag cleaved (UniProt Q8TDI0 413-468)", "sequence (Q8TDI0 413-468)": "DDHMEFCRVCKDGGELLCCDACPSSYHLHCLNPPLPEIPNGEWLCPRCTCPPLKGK", "assay": "SPR"}},
  "note": "Ends that are not written are not given here.",
  "data": [
    {"binder": "B1", "values": [
      {"measurement": "binding result", "setting": "[1]", "result": "binds"}
    ]},
    {"binder": "B2", "values": [
      {"measurement": "Kd", "setting": "[2]", "result": 98.8, "unit": "µM"},
      {"measurement": "koff", "setting": "[2]", "result": "0.0103 ± 0.0001", "unit": "s⁻¹"},
      {"measurement": "kon", "setting": "[2]", "result": "104 ± 7", "unit": "M⁻¹ s⁻¹"},
      {"measurement": "Kd", "setting": "[3]", "result": 9.18, "unit": "µM"},
      {"measurement": "koff", "setting": "[3]", "result": 0.00348, "unit": "s⁻¹"},
      {"measurement": "kon", "setting": "[3]", "result": "379 ± 7", "unit": "M⁻¹ s⁻¹"},
      {"measurement": "Kd", "setting": "[4]", "result": 34.6, "unit": "µM"},
      {"measurement": "koff", "setting": "[4]", "result": "0.0136 ± 0.0003", "unit": "s⁻¹"},
      {"measurement": "kon", "setting": "[4]", "result": "393 ± 13", "unit": "M⁻¹ s⁻¹"}
    ]}
  ]
}
